# Measurements as given in FireProtDB (doi:10.1038/s41598-020-57873-3).
# B1: I144P, Q8GB52 (parent)
# chain: MLKKVLSCCIAATFGIYSASSLAQSSVINSTENSQQPIAPLVLASSDDAITDRYIVVLKQPQMLMNDAAGLQQFTQQTVGLMANSFSIKTDDVFDSSIIGFVANLDALQLKQLRRDSRVEYIEQDQILSIDPVVSNEAVQSNAIWGLDRIDQRNLPLDRNYNANFDGFGVTAYVIDTGVNNNHEEFGGRSVSGYDFVDNDADSSDCNGHGTHVAGTIGGSQYGVAKNVNIVGVRVLSCSGSGTTSGVISGVDWVAQNASGPSVANMSLGGGQSTALDSAVQGAIQSGVSFMLAAGNSNADACNTSPARVPSGVTVGSTTSSDSRSSFSNWGSCVDLFAPGSQIKSAWYDGGYKTISGTSMATPHVAGVAALYLQENNGLTPLQLTGLLNSRASENKVSDTRGTTNKLLYSLADSGCEPDCGGPTPGPDPDGKLVSGVPVNGLSGSRGQKDYFYMDLQQGQQLTVVTIGGTGDADLYLRFGDKPTLNTWDCRPYRSGNSETCTVNVTQSGRYHVMLNAYSAYSGLTLQANF
# Variants of: B1
# Conditions: Vibrio sp. PA-44, pH 8.6, Thermal, structure 1SH7, whole UniProt chain shown
# [1] = CD, Glycine 25 mM, NaCl and CaCl2 100 mM and 15 mM
# [2] = CD, glycine, Nacl / Cacl2 100000 / 15000, transition: 2, reversible: no
# [3] = DSC, Glycine 25 mM, NaCl and CaCl2 100 mM and 15 mM
# [4] = DSC, glycine, Nacl / Cacl2 100000 / 15000, transition: 2, reversible: no
Variant,Tm [1] [°C],"change of melting temperature, mutant - wild type (higher = more stable) [1] [°C]",Tm [2] [°C],"change of melting temperature, mutant - wild type (higher = more stable) [2] [°C]",Tm [3] [°C],"change of melting temperature, mutant - wild type (higher = more stable) [3] [°C]",unfolding enthalpy (calorimetric) [3] [kcal/mol],Tm [4] [°C],"change of melting temperature, mutant - wild type (higher = more stable) [4] [°C]",unfolding enthalpy (calorimetric) [4] [kcal/mol]
I144P,65.1,3.2,65.1,3.2,65.7,1.8,137,65.7,1.8,136
T404P,61.6,-0.3,,,64.5,0.6,108,64.5,0.6,108
N377P,,,60.7,-1.2,63.6,-0.3,133,63.6,-0.3,133
